# Measurements: article PMC6697681, “The predominance of nucleotidyl activation in bacterial phosphonate biosynthesis” (Nature Communications, 2019)
# B1: Tde1415 (Tde-PntC; two-domain protein with an N-terminal PntC and a C-terminal AEPT domain) from Treponema denticola (enzyme, Treponema denticola ATCC 35405)
# chain: MIKQAVILAGGLGSRLKDKTKTMPKGFLEIGGTAIVEQSVQKLLAHGIEKIVIGTGHCNEYYDNLAKKYPAIITVKNENYANTGSMGTLEVCASFVNESFLLLESDLIYDSAGLFSLINDERKNLILASGATKSGDEVYLEADEKNCLTGLSKNRDALKNIFGELVGITKLTKSTLDKMCAYAKIHHSDLPKMEYEHALLEAAKTIPVAIKRIEYFVWREIDNEDHLEMAVKNIYPHIVENEKLRAVRREVLLNPGPATTTDSVKYAQVSADICPREKAFGDLMQWLCDELKLFALASETNPDEYETVMFGCSGTGADEVMVSSCVPDTGRLLVIDNGSYGARMAKIADIYKIPMDIFKSSTYEPLDLQKLEAEFATKKYTHLACVYHETTTGLLNPLHIICPMAKKYGMVTIVDAVSAYCGMPMDLKSLGIDFMASTSNKNIQGMAGVGFVICNKAELEKTKDYPMRNYYLNLYDQYAYFAKTHQTRFTPPVQTMYALRQAVLETKQETVQKRYERYTACWNILVAAIKKLGLKMLVKEEHQSHFITAILEPETPKYSFEALHDFAAEHSFTIYPGKLGNIDTFRIANIGDIQPEEMRRFTVKLKEYMNGIGVGV
# notes: Tde1415 (Tde-PntC) from T. denticola ATCC 35405, NCBI NP_992021; N-terminal PntC cytidylyltransferase domain joined to a C-terminal AEP transaminase (AEPT) domain; predicted monomeric molecular weight ~70 kDa; gene subcloned without its stop codon as NdeI/NotI fragment into pET21b (pGH3000); Dimer by DLS; source: E. coli BL21(DE3), purified (Ni-NTA, HiTrap Q FF anion exchange)
# Target: the molecule itself
# Test: dynamic light scattering; 20 µl of freshly purified protein (8 mg/ml) at 20 °C, DynaPro NanoStar; self-association (oligomeric state)
protein,measurement,value
B1,stoichiometry N,2
